Consider 1 molecule from patent US5882887.

Assay [1] deals with collagen (type III).
Assay [2] has as its target collagen (type III). This is another data set of the same source.
Assay [3] concerns the target collagen.

B1: recombinant Asp-Pallidipin (protein of SEQ ID NO:1) (protein)
chain: DEECELMPPGDNFDLEKYFSIPHVYVTHSRNGPKEQVCREYKTTKNSDGTTTTTLVTSDYKTGGKPYHSELKCTNTPKSGGKGQFSVECEVPNGNGGKKKIHVETSVIATDYKNYALLQSCTKTESGIADDVLLLQTKKEGVDPGVTSVLKSVNWSLDDWFSRSKVNCDNMK
With B1, in assay [1], the attachment of 51Cr-labelled MTLn3 rat mammary tumor cells to collagen-coated wells (cpm) came out at 1080 cpm. This molecule also had an adhesion of metastatic tumor cells to collagen in assay [2] of 100 nmol/L. In addition, in assay [3], the collagen-induced aggregation of human platelets in platelet-rich plasma (aggregometer, maximum value) amounted to 50 nM.
